Results published in PMC4534855 (2015).

B1: Flag-eIF2β, wild type [S. cerevisiae] / eIF2γ in yeast whole-cell extracts [yeast (endogenous in yeast whole-cell extracts)] (parent complex)
chain 1: MSSDLAAELGFDPALKKKKKTKKVIPDDFDAAVNGKENGSGDDLFAGLKKKKKKSKSVSADAEAEKEPTDDIAEALGELSLKKKKKKTKDSSVDAFEKELAKAGLDNVDAESKEGTPSANSSIQQEVGLPYSELLSRFFNILRTNNPELAGDRSGPKFRIPPPVCLRDGKKTIFSNIQDIAEKLHRSPEHLIQYLFAELGTSGSVDGQKRLVIKGKFQSKQMENVLRRYILEYVTCKTCKSINTELKREQSNRLFFMVCKSCGSTRSVSSIKTGFQATVGKRRRM
chain 2: MSDLQDQEPSIIINGNLEPVGEPDIVEETEVVAQETQETQDADKPKKKVAFTGLEEDGETEEEKRKREFEEGGGLPEQPLNPDFSKLNPLSAEIINRQATINIGTIGHVAHGKSTVVRAISGVQTVRFKDELERNITIKLGYANAKIYKCQEPTCPEPDCYRSFKSDKEISPKCQRPGCPGRYKLVRHVSFVDCPGHDILMSTMLSGAAVMDAALLLIAGNESCPQPQTSEHLAAIEIMKLKHVIILQNKVDLMREESALEHQKSILKFIRGTIADGAPIVPISAQLKYNIDAVNEFIVKTIPVPPRDFMISPRLIVIRSFDVNKPGAEIEDLKGGVAGGSILNGVFKLGDEIEIRPGIVTKDDKGKIQCKPIFSNIVSLFAEQNDLKFAVPGGLIGVGTKVDPTLCRADRLVGQVVGAKGHLPNIYTDIEINYFLLRRLLGVKTDGQKQAKVRKLEPNEVLMVNIGSTATGARVVAVKADMARLQLTSPACTEINEKIALSRRIEKHWRLIGWATIKKGTTLEPIA

Variants of: B1
Assay: co-immunoprecipitation with FLAG affinity resin, quantified western; yeast whole-cell extracts; three biological replicates; read off a plot
For chain 1 F217A, chain 1 Q221A, the response was ~0.82 eIF2γ:eIF2β. In the case of chain 1 S202A, chain 1 K214A, the response is reported as ~0.89 eIF2γ:eIF2β.
